Target: cac1c_human CACNA1C (UniProt Q13936)
Sequence (Q13936 whole entry): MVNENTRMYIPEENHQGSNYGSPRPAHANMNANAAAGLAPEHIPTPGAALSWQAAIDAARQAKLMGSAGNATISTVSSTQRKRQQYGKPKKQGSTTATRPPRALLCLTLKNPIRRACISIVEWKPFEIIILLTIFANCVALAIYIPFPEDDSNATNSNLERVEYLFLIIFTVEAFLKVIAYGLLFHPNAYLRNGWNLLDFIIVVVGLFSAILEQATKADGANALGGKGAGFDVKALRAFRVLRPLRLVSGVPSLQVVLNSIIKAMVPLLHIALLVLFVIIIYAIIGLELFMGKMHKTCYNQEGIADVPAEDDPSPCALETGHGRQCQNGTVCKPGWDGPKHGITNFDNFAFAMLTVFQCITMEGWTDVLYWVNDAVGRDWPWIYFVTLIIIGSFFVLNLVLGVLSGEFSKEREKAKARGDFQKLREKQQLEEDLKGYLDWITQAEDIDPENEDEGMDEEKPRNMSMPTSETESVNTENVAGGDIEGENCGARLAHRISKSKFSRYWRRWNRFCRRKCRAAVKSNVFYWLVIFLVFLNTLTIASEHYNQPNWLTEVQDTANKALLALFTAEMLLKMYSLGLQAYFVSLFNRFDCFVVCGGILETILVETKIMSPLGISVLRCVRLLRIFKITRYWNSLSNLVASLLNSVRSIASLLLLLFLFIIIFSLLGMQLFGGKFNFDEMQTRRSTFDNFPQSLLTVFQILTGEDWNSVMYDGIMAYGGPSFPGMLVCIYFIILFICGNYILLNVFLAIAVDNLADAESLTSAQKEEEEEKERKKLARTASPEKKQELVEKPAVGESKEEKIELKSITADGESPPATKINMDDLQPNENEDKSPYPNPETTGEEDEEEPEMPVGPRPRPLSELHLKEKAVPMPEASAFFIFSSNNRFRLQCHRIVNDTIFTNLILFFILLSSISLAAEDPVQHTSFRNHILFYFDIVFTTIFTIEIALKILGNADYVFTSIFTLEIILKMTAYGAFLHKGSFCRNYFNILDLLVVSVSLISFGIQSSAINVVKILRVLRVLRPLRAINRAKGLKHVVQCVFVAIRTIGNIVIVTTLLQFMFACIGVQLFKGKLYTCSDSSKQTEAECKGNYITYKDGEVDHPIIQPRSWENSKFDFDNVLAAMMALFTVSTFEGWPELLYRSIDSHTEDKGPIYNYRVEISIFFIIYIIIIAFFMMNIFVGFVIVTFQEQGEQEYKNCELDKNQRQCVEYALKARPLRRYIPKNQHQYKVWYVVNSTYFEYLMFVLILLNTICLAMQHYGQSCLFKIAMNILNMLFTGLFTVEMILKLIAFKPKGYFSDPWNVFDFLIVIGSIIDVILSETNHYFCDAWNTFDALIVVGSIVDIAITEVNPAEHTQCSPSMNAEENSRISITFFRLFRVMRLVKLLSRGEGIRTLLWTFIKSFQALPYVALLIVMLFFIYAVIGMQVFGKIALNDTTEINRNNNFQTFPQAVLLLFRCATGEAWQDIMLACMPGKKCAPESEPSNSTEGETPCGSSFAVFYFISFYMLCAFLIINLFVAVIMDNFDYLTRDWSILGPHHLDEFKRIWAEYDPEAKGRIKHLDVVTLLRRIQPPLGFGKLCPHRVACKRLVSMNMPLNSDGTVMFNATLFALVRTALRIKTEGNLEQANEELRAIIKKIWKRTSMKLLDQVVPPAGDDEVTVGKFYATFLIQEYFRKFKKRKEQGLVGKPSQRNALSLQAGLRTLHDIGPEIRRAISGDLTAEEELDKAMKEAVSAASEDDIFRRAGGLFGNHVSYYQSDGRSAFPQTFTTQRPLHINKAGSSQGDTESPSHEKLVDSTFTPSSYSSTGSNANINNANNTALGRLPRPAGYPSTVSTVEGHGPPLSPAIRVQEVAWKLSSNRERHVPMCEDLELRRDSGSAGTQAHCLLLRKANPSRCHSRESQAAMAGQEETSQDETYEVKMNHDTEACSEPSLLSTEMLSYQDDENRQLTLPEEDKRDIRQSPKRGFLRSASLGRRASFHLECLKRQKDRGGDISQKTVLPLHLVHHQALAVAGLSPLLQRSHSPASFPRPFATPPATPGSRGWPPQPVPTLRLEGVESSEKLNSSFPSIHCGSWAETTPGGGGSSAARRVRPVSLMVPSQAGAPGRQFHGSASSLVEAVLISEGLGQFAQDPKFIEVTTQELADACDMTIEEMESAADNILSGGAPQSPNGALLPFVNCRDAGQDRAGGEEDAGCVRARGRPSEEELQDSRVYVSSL

With “Voltage-dependent L-type calcium channel subunit beta-2 (Rattus norvegicus (Rat)), Q8VGC3-2 M245A” the “effect of a mutation on the interaction” value was “decreasing interaction”.

— IntAct's records for PubMed 18275819
